Results reported in the supplement of paper PMC9170038.

Tested on: MS2 coat protein
Test: apparent KD of MS2 coat protein; higher = weaker reporter binding
Details: Eterna round: R107
Outline: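 Designed RNA switches were transcribed on-chip from Illumina sequencing clusters. SNAP-549-labelled MS2 coat protein was titrated onto them in twofold steps from 0.7 or 1.5 nM to 3 µM in 100 mM Tris-HCl pH 7.5, 80 mM KCl, 4 mM MgCl2, either without or with constant ligand. Apparent KD reflects the per-design median of normalised cluster binding-curve fits.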

[1] = input ligand: theophylline 20 uM
[2] = input ligand: theophylline 2 mM
[3] = input ligand: tryptophan 2.4 mM

Sequence	apparent KD of MS2 coat protein (input ligand: arginine 13.2 mM) [nM]	apparent KD of MS2 coat protein (input ligand: none) [nM]	apparent KD of MS2 coat protein [1] [nM]	apparent KD of MS2 coat protein [2] [nM]	apparent KD of MS2 coat protein [3] [nM]
ACAUGAGGAUCACCCAUGUCAGGGCACGAUACCAGCUGAUCCGAUGGCCCUUGGCAGCGUUACGUGUGGUCAUGAGGAUCACCCG [pjbmullin]	55.5	59.3	101	76.8	64.7
CGUGUCGUAACUGAUACCAGUGUACUGACAUGAGGAUCACCCAUGUUGGGUUUUGUUGUACACCCUUGGCAGCAGAAUCGAUACG [AstrosExyTheB#7]	46.3		94		75.1
GGUACAUGAGGAUCACCCAUGUGUCAUGAUACCAGACAUGAAAAUGUCCCUUGGCAGCAUGCCAGACGGCCGCGUUUAGCGGCCG [Oresin]	18.6	12.8	19.7	19.6	16.3
CACGAAAGAUCGGCCGCCACUAAUCUAUGUGUACUAGCACAUGAGGAUCACCCAUGUUCUUGCGUUAGGACCGGGAUUGAGCGUG [#03 Exclusion Tryptophan B]	23.4		27.6	24	
ACACAUGACAGAAGGAGCGGAAUGAACACACAUGAGGAUCACCCAUGUUUUUUUUGUGUUUUCCAGGUAGGUCGCUGACAUGAGG [#20 Same State - Arginine B]	11.2	8.99	20.7	9.54	8.95
AAUAAUAACAUGGGUGCACGAGUGGCAUAACGAGGACCGGUACGGCCGCCACUCGAACAUGAGGAUCACCCAUGUAGCCACUCGA [M'-T'-T-MS2-T'' - Design 4]	55.1	102	102	132	20.5
UUCAGCUAGUCGGCCGCCACUACAUGAGGAUCACCCAUGUAAUCCUAACACUGCUUCGGCAGUGGUAGGACCGGGACUAGCUGAG	11.1		14.3	12.2	
AACAUGAGGAUCACCCAUGUCCCUCCCUCCCGAGGACCGGUACGGCCGCCACUCGCCCUCCCUCCCUAAGAAAGAAAGAAGAAGA [Same State - Trypopjan A]	54	37.9	38	38.5	32.1
AGAGUCAGACAAAAGUCUGGCUCAGCCGAAGGAGCGUCCGAAAGGACAGGUAGGUCGCGGUUACCUGAGGAUCACCCGGGUUCCU [ArgAS 25 #OpenEnded #AlternativeMS2]	56.7	219	377	590	184
AGACAUGAGGAUCACCCAUGUAGCAUGGAUACCAGAUGUAGAUUAGUCCCUUGGCAGCUGUGGUGAAGUGAUGCAUUGCUCCUAG [Exclusion - Theophylline A (Freestyle 2)]	29.9		74.3		50.1
GUCAGUAGAACAGAUACCAGUCAAAAGCUGUGAUCUCAUAACAUGAGGAUCACCCAUGUUGACCCUUGGCAGCUGUGGGCGAGGG [#19 Exclusion-TheophyllineB]	27		29.1		19.1
AUGUAGCCGUCGACUGUACCUUAUGCCGAUACCAGCUACCCGUGAAGCCCUUGGCAGCGGGAAACAUGAGGAUCACCCAUGUCAG [theeternabot_exclusion_MS2_Theo_A_13]	19.6		29.6		24.7
AAUAAACAUGAGGAUCACCCAUGUAUGGAAGGAGCGGUGAAUAAACCAGGUAGGUCGCCAGUGUGAGGGUCAUCUAUGUAAUCAA [Exclusion - Arginine A (Freestyle 3)]	29.1	42.1	58.3	49.3	49.5
CUGGCAGGAUGAUCCGCUGUCAGGGCUGAUACCAGCCACGAAAGUGGCCCUUGGCAGCAGCAAACAUGAGGAUCACCCAUGUAAA [(T)''-(M)'-(T)'-(Theo)-(Ms2)_Design2]	54.7		230		108
GUUAUGGACCUGGAUACCAGCUGGUACAAGGGCGGUCUACAUGAGGAUCACCCAUGUGUCAGCCCUUGGCAGCCAGCAACCGGCA [Teraus]	9.36		12.5		8.95
ACAUGAGGAUCACCCAUGUACAUGACGGAAGGAGCGUGCAAAAGCACAGGUAGGUCGCCGAUCUACAUAUUGGGUAUUAUAUUUU [#29 Exclusion - Arginine A]	15.4	19.4	35.7	28.3	24.2
UGACAUUGCUGCGAUACCAGACAUGAGGAUCACCCAUGUGCCAAAUAAACGUACAUAAAUGUCCCUUGGCAGCGCAGCAAUGUCU [MAT - Exclusion Theophlline B - Mod of Eli - D29]	44.9		112		61
GUUAUAUACUCGGCCGCCACUGAGAGAGUCAUGUAAACAUGAGGAUCACCCAUGUAAUAUAUAUACAGGACCGGGAGUAUGGUAA [4.E]	12.1		18.6	14	
UCGCCCGGGUCGGCCGCCACUGAGGUGAUGUGACAUGAGGAUCACCCAUGUUGUCAUGUGGCACAUAGGACCGGGACCCGGGCGA [Exclusion - Tryptophan B Attempt #3 (HarryS)]	16.4	26.3	41	16.8	22.5
GACCUUAUCUGAAGGAGCGAGGUAAAUAGGGAUAGGAACAUGAGGAUCACCCAUGUGCGGCCUCAGGUAGGUCGCAGAUGAGAUU [Exclusion Arginine B GF28]	42	93.7	103	179	113
AUGUAGAACCGAAGGAGCGCGAUAACAUGAGGAUCACCCAUGUAGCUUUGGUGGCCUCGAUCGCAGGUAGGUCGCGGAAGUAGUA [Exclusion - Arginine B / A]	40.8	102	213	231	155
UGUGCAUGAGUUGUAAAAGCUCAUGGGCAUCGAGGACCGGUACGGCCGCCACUCGGCUGUACAUGAGGAUCACCCAUGUCAGGGU [#1 Same State - Tryptophan A Attempt #22 (HarryS)]	133		609	1100	
GAAGACAUGAGGAUCACCCAUGUUACACACCGAGGACCGGUACGGCCGCCACUCGUAGGCCCUCGGCUCACCUGAGAUCCGCAUC [theeternabot_sameState_MS2_Trp_A_11]	17.5		31.8	31.9	
GCAUCCUAGUCGGCCGCCACUGGUAUGAACACCUUCACCCGUGUGCACAUGAGGAUCACCCAUGUUAGGACCGGGACUAGGAUGC [SSTryp B #20]	10		11.2	9.67	
AAAUAAUAUUAAUUAAUUAUAUUAUUCUGACGAGGACCGGUACGGCCGCCACUCGGCCCAUGGUACAUGAGGAUCACCCAUGUCU [Same State - Tryptophan A]	17		17.2	18.9	
AUACAUGAGGAUCACCCAUGUUAUAGUGAAGGAGCGACAUUUAGGUCAGGUAGGUCGCACUAUUGAAUUAUUAUCCUCUUUUCUU [JR_ExcArginiA_Sub021]	23.1	21.3	31.2	23.7	24.7
UCACAUGAGGAUCACCCAUGUGUCAGAGAAGGAGCGGCCGCAAGGCCAGGUAGGUCGCUCGGGUAUGGUGAGGUUCACCCGUGUG [#1 Exclusion - Arginine A Attempt #13 (Inspired by cyborg)]	28.3	47.3	73	57	56.7
CGGUAACCACAUGAGGAUCACCCAUGUGAAGGAGCGGCGAAUAAGCCAGGUAGGUCGCGCAUGAAUAAAUCAUGUUGGUGCCGAA [XArg-A 16 NuPack]	31.9	45.7	121	64.5	31
